The text below walks through data of patent US20240082402A1 (ELPIS BIOPHARMACEUTICALS, published 2024).

One may read the EC50 as the concentration that produces a half-maximal response. As a reminder, the Kd is the free concentration of one partner at which half of the binding sites on the other are occupied at equilibrium, for simple one-to-one binding. For orientation: koff means the first-order rate constant of dissociation. One may read the kon as the rate constant with which the complex forms.

In assay [1] the target is HIS tagged human CD19 recombinant protein (human) (UniProt P15391). Nature of the assay: ELISA, His-tagged CD19 coated at 2 µg/mL, anti-hFc HRP detection. (An ELISA detects its analyte on a solid surface through an enzyme-linked reagent.)
Assay [2] addresses HIS tagged human CD22 recombinant protein (human) (UniProt P20273). The assay can be described thus: SPR Biacore T200, Fc fusion captured on Protein A chip, His-tagged CD22 as analyte. Background: In SPR one partner is held on a chip, and binding of the other changes the refractive index at the surface.
Assay [3] concerns the target HIS tagged human CD19 recombinant protein (human) (UniProt P15391). The assay can be described thus: SPR Biacore T200, Fc fusion captured on Protein A chip, His-tagged CD19 as analyte.
For assay [4], the target named is HIS tagged human CD22 recombinant protein (human) (UniProt P20273). Nature of the assay: ELISA, His-tagged CD22 coated at 2 µg/mL, anti-hFc HRP detection.
Assay [5] concerns the target T1, HIS tagged human CD19 recombinant protein (human, UniProt P15391 20-291, limits assumed).
T1 construct: also called rhCD19; human CD19-HIS tagged protein; not shown: His tag
T1 sequence (looked up): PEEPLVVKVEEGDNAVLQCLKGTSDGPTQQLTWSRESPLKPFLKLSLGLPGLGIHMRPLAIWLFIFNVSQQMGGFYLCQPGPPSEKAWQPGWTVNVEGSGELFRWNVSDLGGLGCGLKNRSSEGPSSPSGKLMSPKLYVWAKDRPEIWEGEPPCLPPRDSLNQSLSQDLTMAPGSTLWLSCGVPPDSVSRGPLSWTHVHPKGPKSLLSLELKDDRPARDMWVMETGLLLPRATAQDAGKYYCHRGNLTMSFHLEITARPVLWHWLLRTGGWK
Nature of the assay: ELISA, plate coated with His-tagged human CD19 at 2 ug/mL, anti-hFc HRP detection. The protocol: (§1) Briefly, 384 well plate was immobilized with HIS tagged human CD19 or CD22 recombinant protein at final concentration of 2 μg/mL in 1×PBS in total volume of 25μL per well. The plate was incubated overnight at 4° C. followed by blocking with 80μL of superblock per well for 1 hour. […] CD19 or CD22 binding was detected by adding 25 μL of anti-hFc HRP diluted at 1:5000 in 1×PBST. In between each step, the plate was washed 3 times with 1×PBST in a plate washer. The plate was then developed with 20 μL of TMB substrate for 5 mins and stopped by adding 20 μL of 2 N sulfuric acid. The plate was read at OD450 nm (BIOTEK plate reader) and data plotted using GraphPad Prism® 8.1 software. […]

Assay [6] addresses T2, HIS tagged human CD22 recombinant protein (human, UniProt P20273 20-687, limits assumed).
T2 construct: also called rhCD22; human CD22-HIS tagged protein; not shown: His tag
Nature of the assay: ELISA, His-tagged CD22 coated at 2 µg/mL, anti-hFc HRP detection. The protocol:
as §1

For assay [7], the target named is T3, endogenous CD19 on Raji / Nalm6 cells (also on CD22 knock-out Raji cells) (human, UniProt P15391 20-556).
T3 construct: whole, on cells
T3 sequence (looked up): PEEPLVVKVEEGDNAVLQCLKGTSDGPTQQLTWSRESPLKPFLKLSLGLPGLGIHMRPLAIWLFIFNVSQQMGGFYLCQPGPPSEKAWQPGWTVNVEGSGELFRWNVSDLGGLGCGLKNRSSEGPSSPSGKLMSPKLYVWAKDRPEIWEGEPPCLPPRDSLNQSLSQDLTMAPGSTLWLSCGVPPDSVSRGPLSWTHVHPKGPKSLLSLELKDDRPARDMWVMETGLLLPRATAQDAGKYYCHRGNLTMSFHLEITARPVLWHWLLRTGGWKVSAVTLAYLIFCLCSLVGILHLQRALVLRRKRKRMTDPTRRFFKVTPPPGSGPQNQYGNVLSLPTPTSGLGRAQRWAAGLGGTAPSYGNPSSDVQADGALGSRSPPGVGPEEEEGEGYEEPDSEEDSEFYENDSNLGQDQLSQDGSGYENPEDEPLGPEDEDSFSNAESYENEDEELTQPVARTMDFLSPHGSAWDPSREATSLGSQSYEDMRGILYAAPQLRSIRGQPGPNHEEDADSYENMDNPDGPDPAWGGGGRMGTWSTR
The assay can be described thus: FACS, scFv-Fc fusion on CD22 knock-out Raji cells (which keep CD19). Background: Flow cytometry measures light scatter and fluorescence of single cells or particles in a stream.

The target in assay [8] is T2, HIS tagged human CD22 recombinant …. Nature of the assay: SPR Biacore T200, Fc fusion captured on Protein A chip, His-tagged CD22 as analyte. The procedure:
(§2) The assay was run using Biacore™ T200 control software version 2.0. For each cycle, 1 μg/mL of Fc-fusion protein was captured for 60 seconds at flow rate of 10 ul/min on flow cell 2 in 1×HBSP buffer on Protein A sensor chip. 2-fold serial human CD19 or CD22-HIS tagged protein was injected onto both reference flow cell 1 and Fc fusion protein captured flow cell 2 for 150 seconds at flow rate of 30 μl/mins followed by wash for 300 seconds. The flow cells were then regenerated with Glycine pH2 for 60 seconds at flow rate of 30 ul/mins. 8 concentration points from 100-0 nM was assayed per Fc fusion in a 96 well plate. The kinetics of Anti-CD19, CD22, CD22-CD19 binding to CD19 or CD22 protein was analyzed using Biacore™ T200 evaluation software version 3.0. The specific binding response unit was derived from subtraction of binding to reference flow cell-1 from Fc fusion protein captured flow cell-2.

Assay [9] addresses T4, full-length human CD19 on transfected K562 cells (human, UniProt P15391 20-556).
T4 construct: whole, on cells; K562 clone transfected with pCMV6-Entry; also called CD19 K562; CD19/K562; not shown: flag or Myc tag at the C-terminus
T4 sequence (looked up): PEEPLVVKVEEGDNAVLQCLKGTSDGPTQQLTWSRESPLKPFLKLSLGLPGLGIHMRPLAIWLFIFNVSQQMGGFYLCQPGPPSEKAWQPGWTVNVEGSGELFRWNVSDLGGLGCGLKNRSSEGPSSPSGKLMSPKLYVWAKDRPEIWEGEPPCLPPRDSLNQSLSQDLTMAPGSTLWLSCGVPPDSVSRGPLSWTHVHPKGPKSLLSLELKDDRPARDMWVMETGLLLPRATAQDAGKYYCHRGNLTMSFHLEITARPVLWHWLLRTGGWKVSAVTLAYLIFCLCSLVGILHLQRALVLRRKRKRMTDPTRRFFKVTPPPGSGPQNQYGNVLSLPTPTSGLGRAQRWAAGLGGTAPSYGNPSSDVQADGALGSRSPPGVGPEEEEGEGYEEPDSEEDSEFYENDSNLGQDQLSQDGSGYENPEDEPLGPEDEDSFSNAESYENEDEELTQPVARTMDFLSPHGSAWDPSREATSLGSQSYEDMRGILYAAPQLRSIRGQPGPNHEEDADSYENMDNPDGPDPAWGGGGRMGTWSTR
Nature of the assay: FACS, scFv at 200 nM on CD19 K562 cells, Alexa Fluor 647 anti-His detection, % positive cells. The protocol:
Cells were spun down at 1300 rpm for 5 minutes at 4° C. to remove unbound antibodies. Cells were then washed once with 200 iaL of PBS per well. […] Samples were then spun down at 1300 rpm for 5 minutes at 4° C. and washed twice with 200uL of 1×PBS per well. The resultant samples were reconstituted in 200 uL of 1×PBS and read on Attune™ NxT Flow Cytometer.

The target of assay [10] is T5, endogenous CD22 on Raji / Nalm6 cells (also on CD19 knock-out Raji cells) (human, UniProt P20273 20-847).
T5 construct: whole, on cells
Nature of the assay: FACS, scFv at 200 nM on Raji and Nalm6 cells, Alexa Fluor 647 anti-His detection, % positive cells.

Assay [11] deals with T1, HIS tagged human CD19 recombinant …. The assay can be described thus: SPR Biacore T200, Fc fusion captured on Protein A chip, His-tagged CD19 as analyte. The protocol: as §2
Assay [12] shares this target. The assay can be described thus: ELISA, His-tagged CD19 coated at 2 µg/mL, anti-hFc HRP detection. The protocol: as §1

B1: Anti-CD22scFv-CD19scFv-Fc (bispecific antibody, part only; not given: Fc and inter-scFv linker, not shown: a dimerising Fc or GST)
chain, part: EVQLVQSGAEVKKPGASVKVSCKASGYTFTSYGISWVRQAPGQGLEWMGWISAYNGNTNYAQKLQGRVTMTTDTSTSTAYMELRSLRSDDTAVYYCARDYGDPSGDDYWGQGTLVTVSSGGGGSGGGGSGGGGSEIVLTQSPATLSVSPGEGVTLSCRASQSVSSNLAWYQQRPGQAPRLLIYGASIKATDVPDRFSGGGSGTDFTLSISNLQSEDFAVYYCQQYHTWPPVTFGGGTKVEIKQVQLQQWGAGLLKPSETLSLTCAVYGGSFSGYYWTWIRQPPGKGLEWIGEINHGGSSNYNPSLKSRVTISVDTSKKQFSLNLNSVTAADTAVYYCARGLGYRSGWYEVENAFDIWGQGTMVTVSSGGGGSGGGGSGGGGSQPVLTQPPSVSVAPGQTARITCGGNKIESRSVHWYQQKPGQAPVLVVYDDGARPSGIPERLSGSNSGDTATLTISRVEPGDEADYYCQVWDGSSVIFGGGTKLTVL
Take B1: the EC50 in assay [1] was found to be 0.052 nM. In [2], the Kd was determined as 3.37 nM, the koff turned out to be 0.000266 s⁻¹ and the kon worked out at 79000 M⁻¹ s⁻¹. In assay [3], the Kd is 4.37 nM, the koff stood at 0.00025 s⁻¹ and the kon was 57200 M⁻¹ s⁻¹. Further, the EC50 in [4] was found to be 0.189 nM.

B2: anti-CD22 scFv-Fc (Fc fusion, not shown: a dimerising Fc or GST)
chain: EVQLVQSGAEVKKPGASVKVSCKASGYTFTSYGISWVRQAPGQGLEWMGWISAYNGNTNYAQKLQGRVTMTTDTSTSTAYMELRSLRSDDTAVYYCARDYGDPSGDDYWGQGTLVTVSSGGGGSGGGGSGGGGSEIVLTQSPATLSVSPGEGVTLSCRASQSVSSNLAWYQQRPGQAPRLLIYGASIKATDVPDRFSGGGSGTDFTLSISNLQSEDFAVYYCQQYHTWPPVTFGGGTKVEIK
notes: also called Anti-CD22-Fc
For B2, in [5], the binding result is listed as “no binding (tested: 25 nM)”. In addition, in assay [6], the EC50 was 0.043 nM. Also, in [7], the binding result is “no binding”. For the same molecule, in assay [8], the Kd was 1.44 nM, the koff is 0.000177 s⁻¹ and the on-rate (kon) was determined as 122000 M⁻¹ s⁻¹.

B3: EPC-001-2 (scFv)
scFv (VH-linker-VL): QVQLVQSGAEVKRPGASVKVSCKASGYTFTSYGISWVRQAPGQGLEWMGWISAYNGNTNYAQKLQGRVTMTTDTSTSTAYMELRSLRSDDTAVYYCARDPGIAVAGTVDYWGQGTLVTVSSGGGGSGGGGSGGGGSEIVMTQSPATLSVSPGEGVTLSCRASQSVSSNLAWYQQRPGQAPRLLIYGASIKATDVPDRFSGGGSGTDFTLSISNVQSEDFAVYYCQQYHTWTPVTFGGGTKVEIK
notes: also called anti-CD22 monospecific scFv; parental anti-CD22 scFv
Regarding B3, the values for the binding result in assay [9] and in [10] were “no binding (tested: 200 nM)” and “binds”, respectively.

B4: anti-CD19 scFv-Fc (Fc fusion, not shown: a dimerising Fc or GST)
chain: QVQLQQWGAGLLKPSETLSLTCAVYGGSFSGYYWTWIRQPPGKGLEWIGEINHGGSSNYNPSLKSRVTISVDTSKKQFSLNLNSVTAADTAVYYCARGLGYRSGWYEVENAFDIWGQGTMVTVSSGGGGSGGGGSGGGGSQPVLTQPPSVSVAPGQTARITCGGNKIESRSVHWYQQKPGQAPVLVVYDDGARPSGIPERLSGSNSGDTATLTISRVEPGDEADYYCQVWDGSSVIFGGGTKLTVL
notes: also called anti-CD19-Fc
Take B4: in [11], the Kd was 3.75 nM, the koff is 0.000223 s⁻¹ and the kon is 59400 M⁻¹ s⁻¹. The EC50 in assay [12] amounted to 0.0094 nM.
